Consider 1 substance from paper PMC4422707.

In the experiment the target is His-SUMO-2B protein (FMDV non-structural 2B protein fused to SUMO) (foot-and-mouth disease virus (FMDV) serotype Asia1). The experiment in a line: cross-linking.

Where “and” joins values, the source holds several entries; their conditions need not be identical. Equal values may be shown once.

For the substance “His-SUMO-2B protein (FMDV non-structural 2B protein fused to SUMO) (natural protein)”, the stoichiometry N (usually a count of units in the complex or per binding partner) was 2 and 4 and 6.
